A short description of this series: protein stability index of a GFP-peptide fusion (yeast GPS) (PSI 1-4); higher = more stable; sorted into four equal gates, so the index is relative within each strain. Put shortly: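 Tiled 17-residue yeast protein peptides were fused downstream of GFP in a plasmid that also expresses Cherry, and the pooled library was carried in yeast. Mid-log cultures in leucine-free medium were sorted into four equal gates by GFP/Cherry fluorescence ratio, and plasmids from each gate were PCR-amplified and Illumina-sequenced, with reads assigned to strains by barcodes. The protein stability index for each peptide was each gate's read frequency times its gate number, summed.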

± gives the uncertainty stated by the source.

As to LLKKELLTIEPKLKEAT [SMC2], the protein stability index runs as follows: (doa10∆) 3.22 ± 0.052; (pdr5∆) 3.14 ± 0.064; (san1∆) 3.11 ± 0.046; (ubr1∆) 3.21 ± 0.039.

Regarding LLKLTKVFIRESLSLKN [YML103C/NUP188], the protein stability index runs as follows: (doa10∆) 1.72 ± 0.1; (pdr5∆) 1.89 ± 0.12; (san1∆) 1.3 ± 0.22; (ubr1∆) 1.83 ± 0.17.

For LLLSRVRADDLSTRFNI [RRP43], the protein stability index came out at 3.24 ± 0.091 (doa10∆), 3.07 ± 0.063 (pdr5∆), 3.02 ± 0.06 (san1∆) and 3 ± 0.049 (ubr1∆).

As to LLMRLEGNYRNLNNLKQ [RPB8], the protein stability index reads like this: (doa10∆) 3.29 ± 0.14; (pdr5∆) 3.13 ± 0.13; (san1∆) 3.22 ± 0.2; (ubr1∆) 3.37 ± 0.082.

On to LLNEWSHNVDELLEHIE [RPN5], for which the protein stability index was found to be 2.57 ± 0.12 (doa10∆), 1.9 ± 0.09 (pdr5∆), 2.13 ± 0.19 (san1∆) and 1.58 ± 0.061 (ubr1∆).

In the case of LLPTNNGQPLNQNFSLT [GRR1], the protein stability index by setting is: (doa10∆) 3.06 ± 0.058; (pdr5∆) 2.95 ± 0.045; (san1∆) 2.81 ± 0.045; (ubr1∆) 3.02 ± 0.047.

LLRALKTNEESAKMILL [PRP8]: the protein stability index stood at 3.05 ± 0.099 (doa10∆), 2.98 ± 0.1 (pdr5∆), 2.86 ± 0.071 (san1∆) and 2.92 ± 0.037 (ubr1∆).

For the sequence LLRLASKSTSMKLSMPP [POP1], the protein stability index by setting is: (doa10∆) 2.75 ± 0.064; (pdr5∆) 2.76 ± 0.065; (san1∆) 2.69 ± 0.059; (ubr1∆) 2.81 ± 0.049.

LLRQKIEQCKHPLHELI [ISW2]: the protein stability index by setting is: (doa10∆) 1.37 ± 0.088; (pdr5∆) 1.49 ± 0.081; (san1∆) 1.45 ± 0.22; (ubr1∆) 1.48 ± 0.12.

In the case of LLRSVLVLLELVSSGDR [YML103C/NUP188], the protein stability index by setting is: (doa10∆) 1.84 ± 0.23; (pdr5∆) 2.03 ± 0.12; (ubr1∆) 2.28 ± 0.15.

In the case of LLSDPTITIKSYHLWPS [PRP8], the protein stability index by setting is: (doa10∆) 2.33 ± 0.063; (pdr5∆) 2.62 ± 0.073; (san1∆) 2.53 ± 0.094; (ubr1∆) 2.51 ± 0.077.

As for LLTLTNAANVPVENIWA [RPP1A], the protein stability index (doa10∆) was 2.12 ± 0.081, the protein stability index (pdr5∆) turned out to be 2.56 ± 0.13, the protein stability index (san1∆) was 2.48 ± 0.11 and the protein stability index (ubr1∆) was found to be 2.55 ± 0.094.

For LLTNDESAFENLMGNRN [SNF12], the protein stability index came out at 2.96 ± 0.14 (doa10∆), 2.7 ± 0.12 (pdr5∆), 3 ± 0.19 (san1∆) and 3.14 ± 0.078 (ubr1∆).

As for LLTNFHGMDFTTDKLRS [RPS1A], the protein stability index by setting is: (doa10∆) 2.52 ± 0.1; (pdr5∆) 3.02 ± 0.084; (san1∆) 2.84 ± 0.097; (ubr1∆) 2.81 ± 0.077.

As for LLWLVLIHPENFTCNRK [SWI1], the protein stability index runs as follows: (doa10∆) 1.9 ± 0.056; (pdr5∆) 1.92 ± 0.063; (san1∆) 2.38 ± 0.064; (ubr1∆) 2.96 ± 0.074.

On to LMTFNAETKSYDSRGVG [YLR335W/NUP2], for which the protein stability index was 2.19 ± 0.063 (doa10∆), 2.65 ± 0.059 (pdr5∆), 2.74 ± 0.054 (san1∆) and 2.71 ± 0.048 (ubr1∆).

For the sequence LMVFNDDTKNQDSMSKG [YGR119C/NUP57], the protein stability index by setting is: (doa10∆) 3.04 ± 0.08; (pdr5∆) 3.46 ± 0.16; (san1∆) 2.94 ± 0.18; (ubr1∆) 3.05 ± 0.071.

Regarding LNAELESKLIPQENDLE [SMC3], the protein stability index by setting is: (doa10∆) 3.12 ± 0.1; (pdr5∆) 3.16 ± 0.076; (san1∆) 3.23 ± 0.075; (ubr1∆) 3.15 ± 0.057.

Consider LNATKISPSAPSKDSFT [YAR002W/NUP60], for which the protein stability index by setting is: (doa10∆) 2.8 ± 0.068; (pdr5∆) 3 ± 0.068; (san1∆) 2.94 ± 0.052; (ubr1∆) 3 ± 0.043.

Turning to LNDEYNYPQLTEDILKE [YCS4], the protein stability index came to 2.91 ± 0.15 (doa10∆), 3.12 ± 0.099 (pdr5∆), 3 ± 0.071 (san1∆) and 3.49 ± 0.085 (ubr1∆).

For LNDLNHLLVQLQKNDVY [REC8], the protein stability index was 2.52 ± 0.051 (doa10∆), 2.48 ± 0.047 (pdr5∆), 2.47 ± 0.058 (san1∆) and 2.17 ± 0.042 (ubr1∆).

Regarding LNDRFQTLSSHLEALQP [PGD1], the protein stability index reads like this: (doa10∆) 2.64 ± 0.04; (pdr5∆) 2.69 ± 0.042; (san1∆) 2.63 ± 0.04; (ubr1∆) 2.54 ± 0.032.

As to LNDRQEEISRLQRDLIQ [YIL149C/MLP2], the protein stability index stood at 2.72 ± 0.11 (doa10∆), 3.25 ± 0.25 (pdr5∆), 3.07 ± 0.26 (san1∆) and 3.05 ± 0.12 (ubr1∆).

Turning to LNEAPFPEENIIDAKTR [MCD1], the protein stability index is, setting by setting: (doa10∆) 3.12 ± 0.078; (pdr5∆) 3.17 ± 0.052; (san1∆) 3.136 ± 0.031; (ubr1∆) 3.27 ± 0.051.

Regarding LNELKAIKDKLEQDLHF [YIL149C/MLP2], the protein stability index (doa10∆) worked out at 3 ± 0.07, the protein stability index (pdr5∆) is 3.13 ± 0.069, the protein stability index (san1∆) was 2.82 ± 0.07 and the protein stability index (ubr1∆) came out at 3.24 ± 0.063.

Turning to LNENARELEQIKPKIAL [SNF12], the protein stability index is, setting by setting: (doa10∆) 3.23 ± 0.3; (pdr5∆) 3 ± 0.23; (san1∆) 2.64 ± 0.25.

In the case of LNFYITNVPKAKKRKTL [SIR3], the protein stability index is, setting by setting: (doa10∆) 1.97 ± 0.12; (pdr5∆) 1.86 ± 0.093; (san1∆) 1.63 ± 0.12; (ubr1∆) 1.86 ± 0.071.

(Values after the supplement of paper PMC9732359.)
